Data taken from patent US20240360208A1 (Hoffmann-La Roche, published 2024).

T1: human FcγRIIb receptor on CHO-K1 cells (clone 223) (human, UniProt P31994 43-310)
T1 sequence (looked up): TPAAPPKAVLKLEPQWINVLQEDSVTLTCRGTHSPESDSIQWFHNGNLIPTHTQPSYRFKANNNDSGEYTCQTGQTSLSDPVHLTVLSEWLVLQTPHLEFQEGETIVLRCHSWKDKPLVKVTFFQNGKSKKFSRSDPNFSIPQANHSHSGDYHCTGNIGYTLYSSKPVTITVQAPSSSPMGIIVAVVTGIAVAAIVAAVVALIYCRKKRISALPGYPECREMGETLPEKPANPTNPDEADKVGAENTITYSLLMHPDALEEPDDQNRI

B1: P1AF8143 (CKLO2-CB-GG02) (bispecific antibody)
chain 1: not shown
chain 2: QVQLVQSGAEVKKPGSSVKVSCKASGLTISHTYMHWVRQAPGQGLEWMGRIDPDNHNTKFDPKFQGRVTITADTSTSTAYMELSSLRSEDTAVYYCARGVFGFFEHWGQGTTVTVSSASTKGPSVFPLAPSSKSTSGGTAALGCLVKDYFPEPVTVSWNSGALTSGVHTFPAVLQSSGLYSLSSVVTVPSSSLGTQTYICNVNHKPSNTKVDKKVEPKSCGGSGGGGSGGDKTHTCPPCPAPEYLGGDSVFLFPPKPKDVLMISRTPEVTCVVIDVSHEDPEVKFNWYVDGVEVHNAKTKPREEQYNSTYRVVSVLPVLHRDWLNGKEYKCKVSNKALPKPIEKTISKAKGQRREPQVYTLPPCRDELTKNQVSLWCLVKGFYPSDIAVEWESNGQPENNYKTTPPVLDSDGSFFLYSKLTVDKSRWQQGNVFSCSVLHEALHAHTTRKELSLSPGKGGSGGGGSGGDIQMTQSPSSLSASVGDRVTITCKAFEDIYNRRAWYQQKPGKAPKLLIHGATSLEHGVPSRFSGSGSGTDYTLTISSLQPEDFATYYCQQFWSAPYTFGGGTKVEIKRTVAAPSVFIFPPSDEQLKSGTASVVCLLNNFYPREAKVQWKVDNALQSGNSQESVTEQDSKDSTYSLSSTLTLSKADYEKHKVYACEVTHQGLSSPVTKSFNRGEC
B2: CKLO2-GG02 (=P1AF8139) (bispecific antibody)
heavy 1: DIQMTQSPSSLSASVGDRVTITCKAFEDIYNRRAWYQQKPGKAPKLLIHGATSLEHGVPSRFSGSGSGTDYTLTISSLQPEDFATYYCQQFWSAPYTFGGGTKVEIKSSASTKGPSVFPLAPSSKSTSGGTAALGCLVKDYFPEPVTVSWNSGALTSGVHTFPAVLQSSGLYSLSSVVTVPSSSLGTQTYICNVNHKPSNTKVDKKVEPKSCDKTHTCPPCPAPEYLGGDSVFLFPPKPKDVLMISRTPEVTCVVIDVSHEDPEVKFNWYVDGVEVHNAKTKPREEQYNSTYRVVSVLPVLHRDWLNGKEYKCKVSNKALPKPIEKTISKAKGQRREPQVYTLPPCRDELTKNQVSLWCLVKGFYPSDIAVEWESNGQPENNYKTTPPVLDSDGSFFLYSKLTVDKSRWQQGNVFSCSVLHEALHAHTTRKELSLSP
heavy 2: not shown
light 1: QVQLVQSGAEVKKPGSSVKVSCKASGLTISHTYMHWVRQAPGQGLEWMGRIDPDNHNTKFDPKFQGRVTITADTSTSTAYMELSSLRSEDTAVYYCARGVFGFFEHWGQGTTVTVSSASVAAPSVFIFPPSDEQLKSGTASVVCLLNNFYPREAKVQWKVDNALQSGNSQESVTEQDSKDSTYSLSSTLTLSKADYEKHKVYACEVTHQGLSSPVTKSFNRGEC
light 2: EIVLTQSPATLSLSPGERATLSCRASQHVSDAYLAWYQQKPGQAPRLLIYDASDRAEGVPARFSGSGSGTDFTLTISSLEPEDFAVYYCHQYIHLHSFTFGQGTKVEIKRTVAAPSVFIFPPSDRKLKSGTASVVCLLNNFYPREAKVQWKVDNALQSGNSQESVTEQDSKDSTYSLSSTLTLSKADYEKHKVYACEVTHQGLSSPVTKSFNRGEC

Biological target: T1, human FcγRIIb receptor on CHO-K1 cells …
Assay: cell-based or functional assay

Binder	Depletion level max (%) of CCL2 from the supernatant	EC50 [nM] of CCL2 depletion	EC90 [nM] of CCL2 depletion
B1	82%	0.14 nM	0.4 nM
B2	45%	0.6 nM	~30 nM
